Data taken from US20220401557A1 (Chugai, published 2022).
Positions count from the first letter of the chain named.

B1: hCE115HA/GLSuPA20//GCH065 (bispecific antibody, human IgG1, kappa, N297A)
heavy 1: QVQLVESGGGVVQPGRSLRLSCAASGFTFSNAWMHWVRQAPGKGLEWVAQIKAKSNNYATYYAESVKGRFTISRDDSKNSLYLQMNSLKTEDTAVYYCRYVHYGAYYGVDAWGQGTTVTVSSASTKGPSVFPLAPSSKSTSGGTAALGCLVKDYFPEPVTVSWNSGALTSGVHTFPAVLQSSGLYSLSSVVTVPSSSLGTQTYICNVNHKPSNTKVDKKVEPKSCDKTHTCPPCPAPELRGGPKVFLFPPKPKDTLMISRTPEVTCVVVDVSHEDPEVKFNWYVDGVEVHNAKTKPREEQYASTYRVVSVLTVLHQDWLNGKEYKCKVSNKALPAPIEKTISKAKGQPREPQVYTLPPSRKEMTKNQVSLTCLVKGFYPSDIAVEWESNGQPENNYKTTPPYLDSDGSFFLYSKLTVDKSRWQQGNVFSCSVMHEALHNHYTQKSLSLSP
light 1: QDGNEEMGGITQTPYKVSISLSGRSDNHGGGSDIVMTQSPLSLPVTPGEPASISCRSSQSLVHSNRNTYLHWYQQKPGQAPRLLIYKVSNRFSGVPDRFSGSGSGTDFTLKISRVEAEDVGVYYCGQGTQVPYTFGQGTKLEIKRTVAAPSVFIFPPSDEQLKSGTASVVCLLNNFYPREAKVQWKVDNALQSGNSQESVTEQDSKDSTYSLSSTLTLSKADYEKHKVYACEVTHQGLSSPVTKSFNRGEC
heavy 2: QVQLVQSGAEVKKPGASVTVSCKASGYTFTDYEMHWIRQPPGEGLEWIGAIDGPTPDTAYSEKFKGRVTLTADKSTSTAYMELSSLTSEDTAVYYCTRFYSYTYWGQGTLVTVSSASTKGPSVFPLAPSSKSTSGGTAALGCLVKDYFPEPVTVSWNSGALTSGVHTFPAVLQSSGLYSLSSVVTVPSSSLGTQTYICNVNHKPSNTKVDKKVEPKSCDKTHTCPPCPAPELRGGPKVFLFPPKPKDTLMISRTPEVTCVVVDVSHEDPEVKFNWYVDGVEVHNAKTKPREEQYASTYRVVSVLTVLHQDWLNGKEYKCKVSNKALPAPIEKTISKAKGQPREPQVYTLPPSREEMTKNQVSLTCLVKGFYPSDIAVEWESNGQPENNYKTTPPYLDSDGSFFLYSKLTVDKSRWQQGNVFSCSVMHEALHNHYTQESLSLSP
light 2: DIVMTQSPLSLPVTPGEPASISCRSSQPLVHSNRNTYLHWYQQKPGQAPRLLIYKVSNRFSGVPDRFSGSGSGTDFTLKISRVEAEDVGVYYCGQGTQVPYTFGQGTKLEIKRTVAAPSVFIFPPSDEQLKSGTASVVCLLNNFYPREAKVQWKVDNALQSGNSQESVTEQDSKDSTYSLSSTLTLSKADYEKHKVYACEVTHQGLSSPVTKSFNRGEC
B2: hCE115HAGS/GLS//GCH065 (bispecific antibody, human IgG1, kappa, N297A)
heavy 1: QDGNEGGGSGGGSQVQLVESGGGVVQPGRSLRLSCAASGFTFSNAWMHWVRQAPGKGLEWVAQIKAKSNNYATYYAESVKGRFTISRDDSKNSLYLQMNSLKTEDTAVYYCRYVHYGAYYGVDAWGQGTTVTVSSASTKGPSVFPLAPSSKSTSGGTAALGCLVKDYFPEPVTVSWNSGALTSGVHTFPAVLQSSGLYSLSSVVTVPSSSLGTQTYICNVNHKPSNTKVDKKVEPKSCDKTHTCPPCPAPELRGGPKVFLFPPKPKDTLMISRTPEVTCVVVDVSHEDPEVKFNWYVDGVEVHNAKTKPREEQYASTYRVVSVLTVLHQDWLNGKEYKCKVSNKALPAPIEKTISKAKGQPREPQVYTLPPSRKEMTKNQVSLTCLVKGFYPSDIAVEWESNGQPENNYKTTPPYLDSDGSFFLYSKLTVDKSRWQQGNVFSCSVMHEALHNHYTQKSLSLSP
light 1: B1 light 2 with P28S
heavy 2: B1 heavy 2
light 2: B1 light 2
B3: rCE115/rCE115//GCH065 (bispecific antibody, human IgG1, kappa, N297A)
heavy 1: EVQLVETGGSLVQPGKSLKLTCATSGFTFSNAWMHWVRQSPEKQLEWVAQIKAKSNNYATYYAESVKGRFTISRDDSKSNIYLQMNSLKEEDTAVYYCRYVHYGAYYGVDAWGQGTSVTVSSASTKGPSVFPLAPSSKSTSGGTAALGCLVKDYFPEPVTVSWNSGALTSGVHTFPAVLQSSGLYSLSSVVTVPSSSLGTQTYICNVNHKPSNTKVDKKVEPKSCDKTHTCPPCPAPELRGGPKVFLFPPKPKDTLMISRTPEVTCVVVDVSHEDPEVKFNWYVDGVEVHNAKTKPREEQYASTYRVVSVLTVLHQDWLNGKEYKCKVSNKALPAPIEKTISKAKGQPREPQVYTLPPSRKEMTKNQVSLTCLVKGFYPSDIAVEWESNGQPENNYKTTPPYLDSDGSFFLYSKLTVDKSRWQQGNVFSCSVMHEALHNHYTQKSLSLSP
light 1: DVVMTQTPVSMSVSLGGQVSISCRSSQSLVHNNGNTYVSWYIQKPSQSPQLLIYKVSNRFSGISDRFSGSGSGTDFTLKISRVEPDDLGVYYCGQGTQDPYTFGAGTKLELKRTVAAPSVFIFPPSDEQLKSGTASVVCLLNNFYPREAKVQWKVDNALQSGNSQESVTEQDSKDSTYSLSSTLTLSKADYEKHKVYACEVTHQGLSSPVTKSFNRGEC
heavy 2: B1 heavy 2
light 2: B1 light 2
B4: hCE115HA/GLSuPA27//GCH065 (bispecific antibody, human IgG1, kappa, N297A)
heavy 1: B1 heavy 1
light 1: QDGNEEMGGITQTPYKVSISGTTVILTLSGRSDNHDIVMTQSPLSLPVTPGEPASISCRSSQSLVHSNRNTYLHWYQQKPGQAPRLLIYKVSNRFSGVPDRFSGSGSGTDFTLKISRVEAEDVGVYYCGQGTQVPYTFGQGTKLEIKRTVAAPSVFIFPPSDEQLKSGTASVVCLLNNFYPREAKVQWKVDNALQSGNSQESVTEQDSKDSTYSLSSTLTLSKADYEKHKVYACEVTHQGLSSPVTKSFNRGEC
heavy 2: B1 heavy 2
light 2: B1 light 2
B5: rCE115/rCE115uPA04//GCH065 (bispecific antibody, human IgG1, kappa, N297A)
heavy 1: B3 heavy 1
light 1: QDGNEEMGGGSGGGSGGGSLSGRSDNHGGGSDVVMTQTPVSMSVSLGGQVSISCRSSQSLVHNNGNTYVSWYIQKPSQSPQLLIYKVSNRFSGISDRFSGSGSGTDFTLKISRVEPDDLGVYYCGQGTQDPYTFGAGTKLELKRTVAAPSVFIFPPSDEQLKSGTASVVCLLNNFYPREAKVQWKVDNALQSGNSQESVTEQDSKDSTYSLSSTLTLSKADYEKHKVYACEVTHQGLSSPVTKSFNRGEC
heavy 2: B1 heavy 2
light 2: B1 light 2
B6: rCE115/GLSGS//GCH065 (bispecific antibody, human IgG1, kappa, N297A)
heavy 1: B3 heavy 1
light 1: QDGNEGGGSGGGSGGGSDIVMTQSPLSLPVTPGEPASISCRSSQSLVHSNRNTYLHWYQQKPGQAPRLLIYKVSNRFSGVPDRFSGSGSGTDFTLKISRVEAEDVGVYYCGQGTQVPYTFGQGTKLEIKRTVAAPSVFIFPPSDEQLKSGTASVVCLLNNFYPREAKVQWKVDNALQSGNSQESVTEQDSKDSTYSLSSTLTLSKADYEKHKVYACEVTHQGLSSPVTKSFNRGEC
heavy 2: B1 heavy 2
light 2: B1 light 2
B7: rCE115/GLS//GCH065 (bispecific antibody, human IgG1, kappa, N297A)
heavy 1: B3 heavy 1
light 1: B1 light 2 with P28S
heavy 2: B1 heavy 2
light 2: B1 light 2
B8: rCE115/GLSuPA04//GCH065 (bispecific antibody, human IgG1, kappa, N297A)
heavy 1: B3 heavy 1
light 1: QDGNEEMGGGSGGGSGGGSLSGRSDNHGGGSDIVMTQSPLSLPVTPGEPASISCRSSQSLVHSNRNTYLHWYQQKPGQAPRLLIYKVSNRFSGVPDRFSGSGSGTDFTLKISRVEAEDVGVYYCGQGTQVPYTFGQGTKLEIKRTVAAPSVFIFPPSDEQLKSGTASVVCLLNNFYPREAKVQWKVDNALQSGNSQESVTEQDSKDSTYSLSSTLTLSKADYEKHKVYACEVTHQGLSSPVTKSFNRGEC
heavy 2: B1 heavy 2
light 2: B1 light 2
B9: rCE115/rCE115GS//GCH065 (bispecific antibody, human IgG1, kappa, N297A)
heavy 1: B3 heavy 1
light 1: QDGNEGGGSGGGSGGGSDVVMTQTPVSMSVSLGGQVSISCRSSQSLVHNNGNTYVSWYIQKPSQSPQLLIYKVSNRFSGISDRFSGSGSGTDFTLKISRVEPDDLGVYYCGQGTQDPYTFGAGTKLELKRTVAAPSVFIFPPSDEQLKSGTASVVCLLNNFYPREAKVQWKVDNALQSGNSQESVTEQDSKDSTYSLSSTLTLSKADYEKHKVYACEVTHQGLSSPVTKSFNRGEC
heavy 2: B1 heavy 2
light 2: B1 light 2
B10: rCE115/GLSuPA20//GCH065 (bispecific antibody, human IgG1, kappa, N297A)
heavy 1: B3 heavy 1
light 1: B1 light 1
heavy 2: B1 heavy 2
light 2: B1 light 2
B11: rCE115/GLSuPA27//GCH065 (bispecific antibody, human IgG1, kappa, N297A)
heavy 1: B3 heavy 1
light 1: B4 light 1
heavy 2: B1 heavy 2
light 2: B1 light 2

Target: CD3 on NFAT-RE-luc2-Jurkat cells (human, UniProt P07766 23-207)
Assay: cell-based or functional assay

Sequence of CD3 on NFAT-RE-luc2-Jurkat cells (P07766 23-207): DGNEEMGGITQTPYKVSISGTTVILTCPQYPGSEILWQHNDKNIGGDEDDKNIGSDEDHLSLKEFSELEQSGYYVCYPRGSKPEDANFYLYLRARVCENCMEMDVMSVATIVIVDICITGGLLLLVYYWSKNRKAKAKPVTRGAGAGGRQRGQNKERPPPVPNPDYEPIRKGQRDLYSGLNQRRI

increase rate due to the protease treatment (luciferase, uPA-treated / untreated), antibody 0.1 nM | increase rate due to the protease treatment (luciferase, uPA-treated / untreated), antibody 1 nM | Binder
1.6 ratio | 3 ratio | B1
1 ratio | 1 ratio | B2
0.7 ratio | 0.9 ratio | B3
1 ratio | 2.3 ratio | B4
2.7 ratio | 3.8 ratio | B5
1 ratio | 0.7 ratio | B6
0.7 ratio | 0.9 ratio | B7
6.4 ratio | 3.1 ratio | B8
0.9 ratio | 0.6 ratio | B9
2.8 ratio | 1.6 ratio | B10
1 ratio | 1.5 ratio | B11
